Laboratory results reported in patent publication US20250057927A1, “ALPHA-1 A[…] FROM YEAST FOR USE IN THE TREATMENT OF VIRAL INFECTIONS” (priority 2021, published 2025).

B1: rec α1AT Fraction 52 (protein)
chain: EDPQGDAAQKTDTSHHDQDHPTFNKITPNLAEFAFSLYRQLAHQSNSTNIFFSPVSIATAFAMLSLGTKADTHDEILEGLNFNLTEIPEAQIHEGFQELLRTLNQPDSQLQLTTGNGLFLSEGLKLVDKFLEDVKKLYHSEAFTVNFGDTEEAKKQINDYVEKGTQGKIVDLVKELDRDTVFALVNYIFFKGKWERPFEVKDATEEEDFHVDQVTTVKVPMMKRLGMFNIQHCKKLSSWVLLMKYLGNATAIFFLPDEGKLQHLENELTHDIITKFLENEDRRSASLHLPKLSITGTYDLKSVLGQLGITKVFSNGADLSGVTEEAPLKLSKAVHKAVLTIDEKGTEAAGAMFLEAIPMSIPPEVKFNKPFVFLMIEQNTKSPLFMGKVVNPTQK
B2: rhAAT (protein)
chain: B1 chain
B3: rec α1AT Fraction 53 (protein)
chain: B1 chain

Test system: lentiviral pseudoparticles harbouring the SARS-CoV-2 spike protein of Wuhan Hu-1 isolate
Type: cell-based

Molecule | IC50 of inhibiting pseudoparticle entry into Caco2 cells [µg/mL] | estimated IC90 [µg/mL] | pseudoparticle entry | inhibition of pseudoparticle entry compared to Prolastin | inhibition of the entry of SARS-CoV-2 | inhibition of pseudoparticle entry | activity in the pseudoparticle assay compared to Prolastin
Prolastin | 3160 | 20000 | about 10% | – | – | – | –
B1 | – | – | – | greater inhibition | inhibit the entry of SARS-CoV-2 similar to Prolastin | – | –
B2 | – | 8000 | – | – | – | complete inhibition | –
B3 | – | – | – | greater inhibition | inhibit the entry of SARS-CoV-2 similar to Prolastin | – | greater activity
